# Substitutions are numbered along the chain they refer to.
# T1: mouse FcγRII (mouse, UniProt P08101 30-210)
# T1 construct: also called mFcγRII; mFcgRII
# T1 sequence: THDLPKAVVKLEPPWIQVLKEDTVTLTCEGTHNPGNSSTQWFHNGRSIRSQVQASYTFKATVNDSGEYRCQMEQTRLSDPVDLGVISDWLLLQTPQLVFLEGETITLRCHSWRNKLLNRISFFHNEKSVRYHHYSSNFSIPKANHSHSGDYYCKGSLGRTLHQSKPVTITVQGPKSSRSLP
# T2: mouse FcγRIII (mouse, UniProt P08508 31-215)
# T2 construct: also called mFcγRIII; mFcgRIII
# T2 chain: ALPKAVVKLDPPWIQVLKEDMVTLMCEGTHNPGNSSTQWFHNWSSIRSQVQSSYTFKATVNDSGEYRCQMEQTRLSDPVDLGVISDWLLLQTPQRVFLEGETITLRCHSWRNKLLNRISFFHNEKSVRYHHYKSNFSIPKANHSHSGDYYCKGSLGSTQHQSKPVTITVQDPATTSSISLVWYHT
# T3: mouse FcγRII extracellular domain, C-terminal His tag (mouse, UniProt P08101 30-210)
# T3 construct: Whole entry named; also called mFcγRII; mFcgRII
# T3 sequence: T1 sequence
# T4: mouse FcγRIII extracellular domain, C-terminal His tag (mouse, UniProt P08508 31-215)
# T4 construct: Whole entry named; also called mFcγRIII; mFcgRIII
# T4 chain: T2 chain
# B1: MB323 (antibody, mouse IgG1, kappa)
# heavy: QVQLQESGPGLVKPSETLSLTCAVSGHSISHDHAWSWVRQPPGEGLEWIGFISYSGITNYNPSLQGRVTISRDNSKNTLYLQMNSLRAEDTAVYYCARSLARTTAMDYWGEGTLVTVSSAKTTPPSVYPLAPGSAAQTNSMVTLGCLVKGYFPEPVTVTWNSGSLSSGVHTFPAVLQSDLYTLSSSVTVPSSTWPSETVTCNVAHPASSTKVDKKIVPRDCGCKPCICEDEEVEDEFIFPPKPKDVLTITLTPKVTCVVVDISKDDPEVQFSWFVDDVEVHTAQTQPREEQFNSTFRSVSELPIMHQDWLNGKEFKCRVNSAAFPAPIEKTISKTKGRPKAPQVYTIPPPKEQMAKDKVSLTCMITDFFPEDITVEWQWNGQPAENYKNTQPIMDTDGSYFVYSKLNVQKSNWEAGNTFTCSVLHEGLHNHHTEKSLSHSPGK
# light: not shown
# notes: copies: 2 + 2
# B2: MB325 (antibody, mouse IgG1, kappa)
# heavy: B1 heavy with D230V
# light: not shown
# notes: copies: 2 + 2
# B3: MB324 (antibody, mouse IgG1, kappa)
# heavy: B1 heavy with E236H
# light: not shown
# notes: copies: 2 + 2
# B4: MB326 (antibody, mouse IgG1, kappa)
# heavy: B1 heavy with D230V, E236H
# light: not shown
# notes: copies: 2 + 2
# B5: H237-MB364/MRAL-k0 (antibody)
# heavy: B1 heavy with D230A, E231K, E236V
# light: not shown
# notes: copies: 2 + 2
# B6: H237-MB571/MRAL-k0 (antibody, mouse IgG1, kappa)
# heavy: B1 heavy with E229T, D230V, E231P, V233E, E234S, D235F, E236V
# light: not shown
# notes: copies: 2 + 2
# B7: H237-MB564/MRAL-k0 (antibody, mouse IgG1, kappa)
# heavy: B1 heavy with E229T, D230V, E231P, D235S, E236V, F237D
# light: not shown
# notes: copies: 2 + 2
# B8: H237-MB568/MRAL-k0 (antibody, mouse IgG1, kappa)
# heavy: B1 heavy with E229T, D230V, E231P, D235S, E236V, S294H
# light: not shown
# notes: copies: 2 + 2
# B9: H237-MB565/MRAL-k0 (antibody, mouse IgG1, kappa)
# heavy: B1 heavy with E229T, D230V, E231P, D235S, E236V, F237E
# light: not shown
# notes: copies: 2 + 2
# B10: H237-MB561/MRAL-k0 (antibody, mouse IgG1, kappa)
# heavy: B1 heavy with E229T, D230V, E231P, V233E, D235S, E236V
# light: not shown
# notes: copies: 2 + 2
# B11: H237-MB567/MRAL-k0 (antibody, mouse IgG1, kappa)
# heavy: B1 heavy with E229T, D230V, E231P, D235S, E236V, S263M
# light: not shown
# notes: copies: 2 + 2
# B12: H237-MB566/MRAL-k0 (antibody, mouse IgG1, kappa)
# heavy: B1 heavy with E229T, D230V, E231P, D235S, E236V, F237T
# light: not shown
# notes: copies: 2 + 2
# B13: H237-MB562/MRAL-k0 (antibody, mouse IgG1, kappa)
# heavy: B1 heavy with E229T, D230V, E231P, D235F, E236V
# light: not shown
# notes: copies: 2 + 2
# B14: H237-MB563/MRAL-k0 (antibody, mouse IgG1, kappa)
# heavy: B1 heavy with E229T, D230V, E231P, D235W, E236V
# light: not shown
# notes: copies: 2 + 2
# Target: T1, mouse FcγRII
# Assay: SPR Biacore T200, KD ratio
# From the text: (§1) The antibody H chain variable region used was the variable region H237 (SEQ ID NO: 1) of the H chain VH3-IgG1 of the anti-IL-6 receptor antibody Fv4-IgG1 described in WO2009/125825. The antibody L chain commonly used was the L chain MRAL-k0 (SEQ ID NO: 2) of the anti-IL-6 receptor antibody tocilizumab. […] The resulting variant group was designated as MB110 variants. These variants were expressed and purified by the method of Reference Example 1 and evaluated for their binding to mFcγRII and mFcγRIII by the method of Reference Example 2 using Biacore T200.
# (§2) Each altered antibody was analyzed for its interaction with each Fcγ receptor prepared above using Biacore T100 (GE Healthcare Japan Corp.), Biacore T200 (GE Healthcare Japan Corp.), Biacore A100, or Biacore 4000. The running buffer used was HBS-EP+ (GE Healthcare Japan Corp.). The assay temperature was set to 25° C. The sensor chips used were chips prepared by immobilizing Protein L (ACTIGEN or BioVision) onto Series S Sensor Chip CM5 (GE Healthcare Japan Corp.) or Series S Sensor Chip CM4 (GE Healthcare Japan Corp.) by the amine coupling method.
# (§3) In order to calculate the KD value of each altered antibody for FcγR, kinetic analysis was conducted according to the following method: first, the antibody of interest was captured onto any of these chips and allowed to interact with mFcγR diluted with a running buffer. For the obtained sensorgram, the assay results were globally fit into the 1:1 Langmuir binding model using Biacore Evaluation Software to calculate an association rate constant ka (L/mol/s) and a dissociation rate constant kd (1/s). From these values, the dissociation constant KD (mol/L) was calculated.
Relative mFcγRII-binding activity (MB110 = 1) [fold],relative mFcγRII-binding activity (mIgG1 = 1) [fold],Binder
0.13,1.7,B1
0.38,4.7,B2
0.09,1.1,B3
0.33,4,B4

# Target: T2, mouse FcγRIII
# Assay: SPR Biacore T200, KD ratio
# From the text: as §1, §2, §3
Relative mFcγRIII-binding activity (MB110 = 1) [fold],relative mFcγRIII-binding activity (mIgG1 = 1) [fold],Binder
0.03,0.1,B1
0.15,0.6,B2
0.03,0.1,B3
0.06,0.2,B4

# Target: T3, mouse FcγRII extracellular domain, …
# Assay: SPR (Biacore T200); KD of H237-mIgG1/MRAL-k0 / KD of variant
row,relative mFcγRII-binding activity (mIgG1 = 1) [fold],Binder
1,6.55,B5
2,0.22,B6
3,0.32,B7
4,0.71,B8
5,0.66,B9
6,0.48,B10
7,0.21,B11
8,0.18,B12
9,0.05,B13
10,0.2,B14

# Target: T4, mouse FcγRIII extracellular domain, …
# Assay: as above
row,relative mFcγRIII-binding activity (mIgG1 = 1) [fold],Binder
1,1.35,B5
2,0.05,B6
3,0.11,B7
4,0.18,B8
5,0.23,B9
6,0.07,B10
7,0.07,B11
8,0.1,B12
9,0.02,B13
10,0.08,B14

# From US20150203577A1 (Chugai, published 2015)
